Source: paper doi:10.1101/2023.03.06.531442 (bioRxiv, 2023)

B1: mouse α-tubulin isotype α1C (natural protein)
chain: MRECISIHVGQAGVQIGNACWELYCLEHGIQPDGQMPSDKTIGGGDDSFNTFFSETGAGKHVPRAVFVDLEPTVIDEVRTGTYRQLFHPEQLITGKEDAANNYARGHYTIGKEIIDLVLDRIRKLADQCTGLQGFLVFHSFGGGTGSGFTSLLMERLSVDYGKKSKLEFSIYPAPQVSTAVVEPYNSILTTHTTLEHSDCAFMVDNEAIYDICRRNLDIERPTYTNLNRLISQIVSSITASLRFDGALNVDLTEFQTNLVPYPRIHFPLATYAPVISAEKAYHEQLTVAEITNACFEPANQMVKCDPRHGKYMACCLLYRGDVVPKDVNAAIATIKTKRTIQFVDWCPTGFKVGINYQPPTVVPGGDLAKVQRAVCMLSNTTAIAEAWARLDHKFDLMYAKRAFVHWYVGEGMEEGEFSEAREDMAALEKDYEEVGADSAEGDDEGEEY
B2: mouse α-tubulin isotype α4A (natural protein)
chain: MRECISVHVGQAGVQMGNACWELYCLEHGIQPDGQMPSDKTIGGGDDSFTTFFCETGAGKHVPRAVFVDLEPTVIDEIRNGPYRQLFHPEQLITGKEDAANNYARGHYTIGKEIIDPVLDRIRKLSDQCTGLQGFLVFHSFGGGTGSGFTSLLMERLSVDYGKKSKLEFSIYPAPQVSTAVVEPYNSILTTHTTLEHSDCAFMVDNEAIYDICRRNLDIERPTYTNLNRLISQIVSSITASLRFDGALNVDLTEFQTNLVPYPRIHFPLATYAPVISAEKAYHEQLSVAEITNACFEPANQMVKCDPRHGKYMACCLLYRGDVVPKDVNAAIAAIKTKRSIQFVDWCPTGFKVGINYQPPTVVPGGDLAKVQRAVCMLSNTTAIAEAWARLDHKFDLMYAKRAFVHWYVGEGMEEGEFSEAREDMAALEKDYEEVGIDSYEDEDEGEE
B3: recombinant mouse α4A/β2A tubulin heterodimer (complex)
chain 1: B2 chain
chain 2: […]

Experiments:
cryo-EM structure = molecular target: the molecule itself; test: cryo-EM structure
[1] = molecular target: the molecule itself; test: TIRF microscopy of assembled microtubules

Protein	binding result (cryo-EM structure)	binding result [1]
B1	binds	
B2	binds	
B3		binds
